In the assay the target is T. laurifolia Δ6-18:0-ACP desaturase, N-11 truncation (Thunbergia laurifolia). Nature of the assay: crystal structure.

In general, stoichiometry N refers to a count of units in the complex or per binding partner.

Regarding “T. laurifolia Δ6-18:0-ACP desaturase, N-11 truncation (enzyme)”, the stoichiometry N is 2.

The record behind these values is PMC9335243.
